± gives the uncertainty stated by the source.

This data set in a line: amyloid nucleation score (Sup35N fusion, yeast selection) (log enrichment); library NNK2; higher = more nucleation; inactive = no reads after selection. In a few lines: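 Nucleation score: DiMSum log enrichment of output over input reads, centred on the mode score of non-aggregating sequences. Only sequences with at least 100 input reads were kept. Reads came from Illumina sequencing of plasmid inserts before and after 7 days of growth at 30°C without adenine and uracil, in psi-negative yeast expressing Sup35N fused to peptides of 20 random codons after 24 hours of induction with 100 μM copper sulfate.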
In the case of KELRQSVVIM, the amyloid nucleation score was 0.644 ± 0.35. Consider KERELSTTECCTILCSVLFY, for which the amyloid nucleation score came out at 6.852 ± 0.059.

On to KFDLSCNPNSPGSLRYTLNN, for which the amyloid nucleation score result was “inactive”. KFFDRYMFTRGLHT registered an amyloid nucleation score of 7.819 ± 0.051.

KFFFSCTTKFL came in with an amyloid nucleation score of 3.06 ± 0.1. As for KFFLFDHNNNF, the figure is 0.699 ± 0.33; as for KFGVGSLLTSLGYATRSCYL, -0.771 ± 0.25; as for KFKATWYRNSFRAMPCVKPA, 0.042 ± 1.1. For the substance KFLGYQLPPRDSSSGTF, the amyloid nucleation score came out at 0.066 ± 0.27. As for KFMARDLRTYFIALQPRCKD, the figure is 6.614 ± 0.05. As for KGCVLCNIFCRSKGVVGSTL, the figure is 8.737 ± 0.035; as for KGDGNRSDTDVFITHIFMYY, 6.336 ± 0.048. Take KGDRKKDCMPDLVYRKLSGV: the amyloid nucleation score was determined as 0.798 ± 0.67. The result for KGFIIFSFSSAIR reads 2.46 ± 0.1. On to KGGEVEGLSLR, for which the amyloid nucleation score was -0.889 ± 0.63. The result for KGIQYSTLVTRRFWMW reads 3.68 ± 0.088. Turning to KGPTSLLYLVMCFMVLQQLR, the amyloid nucleation score was -0.447 ± 0.78. In the case of KGRVVSCIWGSCPGTSGR, the amyloid nucleation score was -0.235 ± 1.1. For KGVCWVTICELHDW, the amyloid nucleation score is -0.305 ± 0.48. Consider KGVRVQDTNVGIWAGKWGVV, for which the amyloid nucleation score amounted to 0.883 ± 0.29.

KGWNMHSPMRALQHAETVGT displayed an amyloid nucleation score of 0.859 ± 0.3. On to KHIWAMNGCYSLLLKNPALV, for which the amyloid nucleation score is -0.649 ± 1.1. In the case of KHMLASSFVTVPFVAPCFHF, the amyloid nucleation score result was “inactive”. As for KIAWLTLHLTMWFST, the amyloid nucleation score came to 0.329 ± 0.41. KICYWLRRASVYMLVVLGRP: the amyloid nucleation score was -0.343 ± 0.49. Take KIMYVSQECSGADLLGLYFF: the amyloid nucleation score is -0.747 ± 0.79.

Substance KINCLFISLGNRSRVVRTS yielded an amyloid nucleation score of 0.681 ± 0.37. Turning to KIRNSGG, the amyloid nucleation score came out at 0.747 ± 0.56. Substance KIYERPAITDFGSQVD displayed an amyloid nucleation score of -0.505 ± 0.21. The substance KKRQCGMVGLNLVGQYLHSF returned an amyloid nucleation score of -1.3 ± 0.62. KKVYVSDTIWMDYNNS gave an amyloid nucleation score of 3.93 ± 0.064.

For KLACVEGTKWAASGIAPNV, the amyloid nucleation score was determined as 0.946 ± 0.2. In turn, KLALVDIGLVPVIAIMCWMS displayed an amyloid nucleation score of 0.877 ± 0.14. Substance KLFIRWVAWY had an amyloid nucleation score of 0.113 ± 0.8. KLLKYLSNSFTHRVLCNHDD: the amyloid nucleation score result is “inactive”. Consider KLMLSALFLKVPAIIGRYRW, for which the amyloid nucleation score stood at 0.736 ± 0.8. The result for KLMPLTTIPDEVWYFIGYRL reads -0.501 ± 0.32; that for KLSSKDHRFYKVSMKRV, 0.247 ± 0.8. For the substance KLSSRYIYLYSRYEPSS, the amyloid nucleation score result is “inactive”. Substance KLVMFVGIFSNT yielded an amyloid nucleation score of 6.39 ± 0.085. The substance KLYWGNWWCRGSLVDTI yielded an amyloid nucleation score of 0.695 ± 0.66. With KMCIAKKSWEGQLVILYMSA, the amyloid nucleation score was -0.354 ± 0.48. Consider KMGLRRFNFCARFEYRTSVA, for which the amyloid nucleation score is -0.048 ± 0.25.

The substance KMSYVYP gave an amyloid nucleation score of -0.622 ± 0.41. Take KNLLVHNFACGR: the amyloid nucleation score amounted to 0.462 ± 0.74. As for KNNVCSHIPNLGSYYLF, the amyloid nucleation score came out at 0.736 ± 0.8. As to KNSVVL, the amyloid nucleation score is 0.275 ± 0.64. Take KNSYNVPEYLRLLLWGNGMC: the amyloid nucleation score result was “inactive”. In turn, KNTVKDGWRMMMDGCMNTHW returned an amyloid nucleation score of 0.259 ± 0.15.

Take KNTYKQACWQAELHKGLLVG: the amyloid nucleation score stood at 0.748 ± 0.17. In turn, KNYHCTLSWLWFMACFSGIP displayed an amyloid nucleation score of 2.61 ± 0.15. Turning to KPFHLIKTWKQLLLEKGGPN, the amyloid nucleation score was -0.157 ± 0.28. The result for KPLCS reads -0.58 ± 0.55; that for KPLNVHELIVSYEYYLLFCQ, “inactive”; that for KPVGPVYAS, -0.262 ± 0.48. As for KQENMPDSAVVYCRRWGSDM, the figure is 0.057 ± 0.76. The substance KRFGNFMTLRTLRVT gave an amyloid nucleation score of 1.42 ± 0.14. As for KRIPSSWWFVGLVGITWRPA, the figure is 0.826 ± 0.29; as for KRSLNLLKGLIYL, -1.05 ± 1.1. As to KRTTLWTARSRLCERTLNCS, the amyloid nucleation score worked out at 0.324 ± 0.24. KRVLDSGFN had an amyloid nucleation score of -0.845 ± 1. As for KRVSASDISSLYADVRIKE, the amyloid nucleation score is -0.852 ± 0.76. Consider KSCAVFYSSNYVSGSNYLFF, for which the amyloid nucleation score is 6.369 ± 0.047. Consider KSCGLLAYDT, for which the amyloid nucleation score entry was “inactive”. KSIGTAGFDN had an amyloid nucleation score of -0.846 ± 0.42. Regarding KSKRMVTMHKMNENTGLLGD, the amyloid nucleation score came out at 0.543 ± 0.5. KTFMCSFSQHVKGSGVFLTS displayed an amyloid nucleation score of -0.346 ± 0.49. With KTIFGGWSARSGNISMPSWM, the amyloid nucleation score turned out to be 0.267 ± 0.54. With KTMWLLWINGLHMSSHFRSK, the amyloid nucleation score is -0.006 ± 0.22.

The substance KTYEMTDQVIRKPYPL came in with an amyloid nucleation score of 0.347 ± 0.25. As to KVFLWIMLWAMPHTSSGFKP, the amyloid nucleation score was -0.305 ± 0.48. In turn, KVFRSVGMFVCP displayed an amyloid nucleation score of 1 ± 0.29. For the substance KVFVAYGMAVMLFYICHSK, the amyloid nucleation score was found to be 4.561 ± 0.037. Substance KVGVVNYTTSLRFAGRDSSL came in with an amyloid nucleation score of 4.52 ± 0.091. KVLRCYGDHFHHANSRTCLR displayed an amyloid nucleation score of -1.08 ± 0.76.

Take KVSAPHCRLGFWCILC: the amyloid nucleation score result was “inactive”. For the substance KWDIIYNNDVGNLCVLVSN, the amyloid nucleation score was -0.817 ± 1. As for KWGVAFNCSYNGVDNVNFWC, the figure is 6.807 ± 0.058; as for KWIRFWVKDAFRVGRCHIWG, 0.038 ± 0.5. Turning to KWNRWYVALCLVSV, the amyloid nucleation score was determined as 10.08 ± 0.03. KWVRLNKFNLPPHYSPPQTM: the amyloid nucleation score was 1.42 ± 0.24. In the case of KYDVEGMQVSRNFY, the amyloid nucleation score is -0.424 ± 0.79. Consider KYFTVTDVSLY, for which the amyloid nucleation score came to 5.911 ± 0.028. KYLGLGAFCVTVDYQRVWDA: the amyloid nucleation score stood at 0.879 ± 0.58. As for KYSAYWG, the figure is 0.518 ± 0.4; as for KYTCLVMAL, 1.11 ± 0.28. The result for KYVALALERFMLAAHGTSLT reads -0.235 ± 0.33; that for LAAGWGVLHELL, “inactive”. As for LAGSVTIPLPTCYSIMTSRP, the figure is 0.233 ± 0.77. LAGWRRK came in with an amyloid nucleation score of 0.355 ± 0.36. Turning to LAGYSHTI, the amyloid nucleation score amounted to 0.406 ± 0.46. In turn, LAKGPSQDYGAVPHKVMFHS yielded an amyloid nucleation score of 0.961 ± 0.58.

The substance LALSTCFYSWIVLAMFFHRK gave an amyloid nucleation score of 3.16 ± 0.11. As for LALWCTWEVRLIDESAMTTF, the figure is 0.467 ± 0.29; as for LANRPCWFLQRARAMV, 0.959 ± 0.74; as for LAQNEHTLVFILLTNGKS, 3.18 ± 0.046. With LASNFGFHGLAADMDALWCY, the amyloid nucleation score is -1.23 ± 0.78. Turning to LAWGNHRVLRWSAPHNIRSR, the amyloid nucleation score came to 0.93 ± 0.33. As to LCAWDWSGTRVR, the amyloid nucleation score is 0.903 ± 0.67. Regarding LCEISRASPQGGDRDRAMGK, the amyloid nucleation score was -0.018 ± 0.55. LCFYK registered an amyloid nucleation score of 0.388 ± 0.32.

LCNKVL came in with an amyloid nucleation score of 0.27 ± 0.27. Regarding LCTRHACNIYGPLPNAHLVR, the amyloid nucleation score is 0.643 ± 0.31. Consider LCVKVFRRFYRHVHIVHVSQ, for which the amyloid nucleation score is -0.337 ± 0.4. In turn, LCVVY came in with an amyloid nucleation score of -0.237 ± 0.35.

As to LDCNDYRDVCVSGFYVCIEG, the amyloid nucleation score was -0.597 ± 0.27. LDFALNCNSRFSLTQDS showed an amyloid nucleation score of 2.83 ± 0.13. Substance LDILIAQALEVFSDQYCNY showed an amyloid nucleation score of -0.992 ± 0.42. Substance LDLICMDLWFWTNTS displayed an amyloid nucleation score of -0.006 ± 0.4.

Substance LDLLKNCCTASMPGSLVVGR displayed an amyloid nucleation score of 0.369 ± 0.65.

Regarding LDMRSRLHFDDCTRRGYLGM, the amyloid nucleation score is -0.166 ± 0.65.

For the substance LDMSQYYSSRVF, the amyloid nucleation score entry was “inactive”.

The substance LDPKIRWLWK showed an amyloid nucleation score of 0.204 ± 0.6. LDRFLSMRLFLPYVTNLRNH gave an amyloid nucleation score of -0.431 ± 0.64. Take LDSLCG: the amyloid nucleation score was determined as 0.546 ± 0.57. Substance LDWGCILVQ registered an amyloid nucleation score of 0.012 ± 0.43.

LDYFFAAL: the amyloid nucleation score entry is “inactive”. For the substance LEAYVGLLCLSGRLTFSGKC, the amyloid nucleation score amounted to 2.6 ± 0.1. In turn, LELWFGDWNRVMYSCSVDWG displayed an amyloid nucleation score of -0.096 ± 0.5. Take LENLHTLC: the amyloid nucleation score entry is “inactive”. Consider LERECVENDGLGWSRLEYVR, for which the amyloid nucleation score is 0.42 ± 0.33.

LESMRRY came in with an amyloid nucleation score of 1.42 ± 0.27. In the case of LEVCFWFRNSVTKVSMSACL, the amyloid nucleation score was -1.06 ± 0.63. LEVTIMTRFVLMLMTLCFPS gave an amyloid nucleation score of -0.066 ± 0.36. As to LFAIGEVTAYSGRLFSFYTQ, the amyloid nucleation score amounted to 1.79 ± 0.26. Substance LFEASPDAVTVSCDALGLGY registered an amyloid nucleation score of 0.324 ± 0.3. The result for LFIVSDKTFYKGTGCSDFLV reads -1.28 ± 1; that for LFLVTVFRCVFFSQGI, -1.9 ± 1.1; that for LFNLACLRGRKTVWITDKLT, 0.012 ± 0.5. With LFPLI, the amyloid nucleation score was found to be 1.24 ± 0.44. In turn, LFRGRMPFPRDSEYLRNRWK showed an amyloid nucleation score of -0.287 ± 0.28. LFSYQYCVVRMVLFIRL: the amyloid nucleation score is -0.588 ± 0.53.

Consider LFVLK, for which the amyloid nucleation score is -0.843 ± 0.21.

Substance LFVSSDRHRSDESSGDACCL displayed an amyloid nucleation score of -0.494 ± 0.76. As to LFWDLSY, the amyloid nucleation score was -0.959 ± 0.36.

The substance LFYWLITENASNQTTMSVRE showed an amyloid nucleation score of -0.384 ± 0.54. Consider LGAGTSWAWLNLTYSEGTYK, for which the amyloid nucleation score is 0.27 ± 0.8. LGCHLVGLVNRGKNGGRISL: the amyloid nucleation score worked out at 0.315 ± 0.74. Substance LGEYNINLMDGWEGRCRPVR displayed an amyloid nucleation score of 0.728 ± 0.43. Regarding LGFSGNI, the amyloid nucleation score result is “inactive”. LGGRYDVVMLIYLQSALFMG showed an amyloid nucleation score of 0.285 ± 1.
